# Results taken from paper PMC3269379, “The Host-Pathogen interaction of human cyclophilin A and HIV-1 Vpr requires specific N-terminal and novel C-terminal domains” (BMC Structural Biology, 2011).
# Like-named read-outs stand apart in the source and are kept apart here.
# Biological target: human cyclophilin A (human) (UniProt P62937)
# Experiment: SPR
# Sequence of human cyclophilin A (human) (P62937 whole entry): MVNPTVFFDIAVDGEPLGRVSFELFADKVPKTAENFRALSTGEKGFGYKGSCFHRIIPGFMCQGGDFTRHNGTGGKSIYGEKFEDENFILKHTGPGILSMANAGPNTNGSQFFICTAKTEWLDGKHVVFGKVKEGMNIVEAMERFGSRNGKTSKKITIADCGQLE
# Sequence of HIV-1 capsid (CA) (O93182 133-363): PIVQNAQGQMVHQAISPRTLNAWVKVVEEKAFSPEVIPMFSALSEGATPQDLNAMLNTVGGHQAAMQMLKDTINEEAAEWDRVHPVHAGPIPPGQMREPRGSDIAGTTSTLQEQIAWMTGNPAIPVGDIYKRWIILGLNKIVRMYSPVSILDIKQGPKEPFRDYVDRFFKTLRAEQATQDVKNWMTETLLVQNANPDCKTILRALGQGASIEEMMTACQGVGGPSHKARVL
Substance,Kd (cited from earlier work) [µM],Kd [µM],koff [s⁻¹],kon [M⁻¹ s⁻¹]
HIV-1 capsid (CA) (from UniProt O93182),16,,,
"Vpr^75-90 (R76Q, V83I, T84I) (peptide)",,4.7,0.071,16000
"Vpr^75-90 (R76Q, V83I, R80A, T84I) (peptide)",,2.7,0.095,42000
